The supplement of paper PMC5998384

Experiments:
HeLa Kyoto [1] = assay: solubility in G1/S (NP-40 vs SDS abundance) (log2 ratio); higher = more soluble; conditions: cell cycle stage: G1/S
HeLa Kyoto [2] = assay: melting temperature (median over replicates), in situ; higher = more thermally stable
HeLa Kyoto [3] = assay: solubility change mitosis vs G1/S (difference of NP-40 vs SDS log2 ratios) (log2 ratio difference); higher = more soluble in mitosis
HeLa Kyoto [4] = assay: thermal stability score vs G1/S (z-score of summed log2 fold changes over temperatures); higher = more thermally stable than in G1/S
[5] = cell cycle stage: early G1 (4.5 h after nocodazole release)
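Throughout, for melting temperature (median over replicates), in situ: HeLa Kyoto cells synchronized by double thymidine or nocodazole block, proteins quantified by TMT10plex mass spectrometry, three independent biological replicates.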
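Throughout, for solubility change mitosis vs G1/S (difference of NP-40 vs SDS log2 ratios): synchronized HeLa Kyoto cells (double thymidine block for G1/S, nocodazole release for mitosis), protein amounts in NP-40 versus SDS lysates quantified by mass spectrometry, three biological replicates.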
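Throughout, for solubility in G1/S (NP-40 vs SDS abundance): HeLa Kyoto cells arrested at G1/S by double thymidine block, proteins quantified by TMT10plex mass spectrometry in mild NP-40 versus SDS extracts, three biological replicates.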
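Throughout, for thermal stability score vs G1/S (z-score of summed log2 fold changes over temperatures): synchronized HeLa Kyoto cells, proteins quantified by TMT10plex mass spectrometry, three biological replicates, mitosis taken 0.5 h after nocodazole release, G1/S directly after double thymidine block.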

## MSGTNLDGNDEFDEQLRMQELYGDGKDGDTQTDAGGEPDSLGQQPTDTPYEWDLDKKAWFPKITEDFIATYQANYGFSNDGASSSTANVEDVHARTAEEPPQEKAPEPTDARKKGEKRKAESGWFHVEEDRNTNVYVSGLPPDITVDEFIQLMSKFGIIMRDPQTEEFKVKLYKDNQGNLKGDGLCCYLKRESVELALKLLDEDEIRGYKLHVEVAKFQLKGEYDASKKKKKCKDYKKKLSMQQKQLDWRPERRAGPSRMRHERVVIIKNMFHPMDFEDDPLVLNEIREDLRVECSKFGQIRKLLLFDRHPDGVASVSFRDPEEADYCIQTLDGRWFGGRQITAQAWDGTTDYQVEETSREREERLRGWEAFLNAPEANRGLRRSDSVSASERAGPSRARHFSEHPSTSKMNAQETATGMAFEEPIDEKKFEKTEDGGEFEEGASENNAKESSPEKEAEEGCPEKESEEGCPKRGFEGSCSQKESEEGNPVRGSEEDSPKKESKKKTLKNDCEENGLAKESEDDLNKESEEEVGPTKESEEDDSEKESDEDCSEKQSEDGSEREFEENGLEKDLDEEGSEKELHENVLDKELEENDSENSEFEDDGSEKVLDEEGSEREFDEDSDEKEEEEDTYEKVFDDESDEKEDEEYADEKGLEAADKKAEEGDADEKLFEESDDKEDEDADGKEVEDADEKLFEDDDSNEKLFDEEEDSSEKLFDDSDERGTLGGFGSVEEGPLSTGSSFILSSDDDDDDI [HTATSF1]
HeLa Kyoto [1]
  solubility in G1/S (log2): -0.256
HeLa Kyoto [2]; cell cycle stage: G1/S
  melting temperature: 47.4 °C
HeLa Kyoto [2]; cell cycle stage: mitosis
  melting temperature: 49.4 °C
HeLa Kyoto [3]
  solubility change mitosis (log2): -0.0715
HeLa Kyoto [4]; [5]
  thermal stability score: 5.21
HeLa Kyoto [4]; cell cycle stage: mitosis
  thermal stability score: 9.34

## MEPFTNDRLQLPRNMIENSMFEEEPDVVDLAKEPCLHPLEPDEVEYEPRGSRLLVRGLGEHEMEEDEEDYESSAKLLGMSFMNRSSGLRNSATGYRQSPDGACSVPSARTMVVCAFVIVVAVSVIMVIYLLPRCTFTKEGCHKKNQSIGLIQPFATNGKLFPWAQIRLPTAVVPLRYELSLHPNLTSMTFRGSVTISVQALQVTWNIILHSTGHNISRVTFMSAVSSQEKQAEILEYAYHGQIAIVAPEALLAGHNYTLKIEYSANISSSYYGFYGFSYTDESNEKKYFAATQFEPLAARSAFPCFDEPAFKATFIIKIIRDEQYTALSNMPKKSSVVLDDGLVQDEFSESVKMSTYLVAFIVGEMKNLSQDVNGTLVSIYAVPEKIGQVHYALETTVKLLEFFQNYFEIQYPLKKLDLVAIPDFEAGAMENWGLLTFREETLLYDSNTSSMADRKLVTKIIAHELAHQWFGNLVTMKWWNDLWLNEGFATFMEYFSLEKIFKELSSYEDFLDARFKTMKKDSLNSSHPISSSVQSSEQIEEMFDSLSYFKGSSLLLMLKTYLSEDVFQHAVVLYLHNHSYASIQSDDLWDSFNEVTNQTLDVKRMMKTWTLQKGFPLVTVQKKGKELFIQQERFFLNMKPEIQPSDTSYLWHIPLSYVTEGRNYSKYQSVSLLDKKSGVINLTEEVLWVKVNINMNGYYIVHYADDDWEALIHQLKINPYVLSDKDRANLINNIFELAGLGKVPLKRAFDLINYLGNENHTAPITEALFQTDLIYNLLEKLGYMDLASRLVTRVFKLLQNQIQQQTWTDEGTPSMRELRSALLEFACTHNLGNCSTTAMKLFDDWMASNGTQSLPTDVMTTVFKVGAKTDKGWSFLLGKYISIGSEAEKNKILEALASSEDVRKLYWLMKSSLNGDNFRTQKLSFIIRTVGRHFPGHLLAWDFVKENWNKLVQKFPLGSYTIQNIVAGSTYLFSTKTHLSEVQAFFENQSEATFRLRCVQEALEVIQLNIQWMEKNLKSLTWWL [LNPEP]
HeLa Kyoto [1]
  solubility in G1/S (log2): 0.198
HeLa Kyoto [2]; cell cycle stage: G1/S
  melting temperature: 56.8 °C
HeLa Kyoto [2]; cell cycle stage: mitosis
  melting temperature: 57.1 °C
HeLa Kyoto [3]
  solubility change mitosis (log2): -0.15
HeLa Kyoto [4]; [5]
  thermal stability score: -1.44
HeLa Kyoto [4]; cell cycle stage: mitosis
  thermal stability score: -1.44

## MAMNYNAKDEVDGGPPCAPGGTAKTRRPDNTAFKQQRLPAWQPILTAGTVLPIFFIIGLIFIPIGIGIFVTSNNIREIEIDYTGTEPSSPCNKCLSPDVTPCFCTINFTLEKSFEGNVFMYYGLSNFYQNHRRYVKSRDDSQLNGDSSALLNPSKECEPYRRNEDKPIAPCGAIANSMFNDTLELFLIGNDSYPIPIALKKKGIAWWTDKNVKFRNPPGGDNLEERFKGTTKPVNWLKPVYMLDSDPDNNGFINEDFIVWMRTAALPTFRKLYRLIERKSDLHPTLPAGRYSLNVTYNYPVHYFDGRKRMILSTISWMGGKNPFLGIAYIAVGSISFLLGVVLLVINHKYRNSSNTADITI [TMEM30A]
HeLa Kyoto [1]
  solubility in G1/S (log2): 0.428
HeLa Kyoto [2]; cell cycle stage: G1/S
  melting temperature: 54.2 °C
HeLa Kyoto [2]; cell cycle stage: mitosis
  melting temperature: 54.6 °C
HeLa Kyoto [3]
  solubility change mitosis (log2): -0.17
HeLa Kyoto [4]; [5]
  thermal stability score: -0.78
HeLa Kyoto [4]; cell cycle stage: mitosis
  thermal stability score: 0.594

## MTSMTQSLREVIKAMTKARNFERVLGKITLVSAAPGKVICEMKVEEEHTNAIGTLHGGLTATLVDNISTMALLCTERGAPGVSVDMNITYMSPAKLGEDIVITAHVLKQGKTLAFTSVDLTNKATGKLIAQGRHTKHLGN [ACOT13]
HeLa Kyoto [1]
  solubility in G1/S (log2): 0.372
HeLa Kyoto [2]; cell cycle stage: G1/S
  melting temperature: 56.4 °C
HeLa Kyoto [2]; cell cycle stage: mitosis
  melting temperature: 57.7 °C
HeLa Kyoto [3]
  solubility change mitosis (log2): -0.0848
HeLa Kyoto [4]; [5]
  thermal stability score: -1.62
HeLa Kyoto [4]; cell cycle stage: mitosis
  thermal stability score: -1.82
